Data on 2 substances can be found in patent US20060257492A1, “Suspension of calcium phosphate particulates for local delivery of therapeutic agents” (DePuy Products, Inc., priority 2005, published 2006).

Series [1] is described as follows: Osteocalcin adsorption, elution and dissolution test on biomimetic apatite (HPLC). The settings on record: 20 μg protein. The series is classed as physicochemical. As to the method: The test with osteocalcin was conducted by incubating biomimetic apatite prepared on Ti6Al4V substrates with phosphate buffered saline (PBS) containing 0.1 mg/mL (bovine serum albumin) BSA. […] Eighty five percent of the original protein (20 μg) is adsorbed by biomimetic apatite crystals within 3 hours of test. An elution test was designed to further test the affinity of biomimetic apatite to osteocalcin in PBS containing 0.1 mg/mL BSA was measured (FIG. 6). Only ˜6% of the originally applied protein (20 μg) was eluted out from the biomimetic apatite crystals after 20 hours of incubation.

The nature of series [2]: TGF-β1 adsorption, elution and dissolution test on biomimetic apatite (HPLC). It is filed as physicochemical. The method, then: A parallel study was designed for testing the interaction between biomimetic apatite mineral with TGF-β1 by using a sodium acetate buffer containing 0.1 mg/mL BSA. […] Fifty five percent of growth factor (20 μg) was adsorbed by biomimetic apatite crystallites after 4 hours. Ten percent additional protein was adsorbed in the next 20 hour.

Consider “osteocalcin (YLYQWLGAPVPYPDPLEPRREVCELNPDCDELADHIGFQEAYRRFYGPV; UniProt P02818 52-100, looked up)”, for which the “originally applied protein eluted out from the biomimetic apatite crystals” value in series [1] (PBS containing 0.1 mg/mL BSA, after 20 hours of incubation) is recorded as around 6%. Besides, the “original protein adsorbed by biomimetic apatite crystals” value in series [1] (PBS containing 0.1 mg/mL BSA, within 3 hours) is given as “Eighty five”. The “protein recovered after dissolution of the minerals in acid” value in series [1] (minerals fully dissolved in acid) was around 64%.
“transforming growth factor-beta-1 [TGF-β1]”: in series [2] (20 μg, sodium acetate buffer containing 0.1 mg/mL BSA, after 4 hours), the “growth factor adsorbed by biomimetic apatite crystallites” value is “Fifty five”. In series [2] (compared with osteocalcin), the “elution and dissolution profiles” value is recorded as “very similar to those of osteocalcin”. For the same substance, the additional protein adsorbed result in series [2] (sodium acetate buffer containing 0.1 mg/mL BSA, in the next 20 hour) is on record as “Ten”.
